Publication PMC5357137, “Target DNA bending by the Mu transpososome promotes careful transposition and prevents its reversal” (eLife, 2017)

Target: the molecule itself
Experiment: SEC; CDCs formed from a 2:1 mixture of MuA protein and Mu end DNA at 30°C for ≥1 hr; 25 mM HEPES pH 7.4, 200 mM NaCl, 5% glycerol, 0.6 mM Zwittergent 3-12, 0.5 mM EDTA, no Mg2+; Superdex 200 Increase 10/300; tetramer peak collected

B1: MuA transposase lacking domain Iα (residues 1–76) (enzyme)
chain: not shown
notes: MuA transposase of bacteriophage Mu; all constructs lacked domain Iα (residues 1-76); domain IIIβ (the C-terminal ~60 residues) is included; In the assay it stood with Mu end DNA fragments as the cleaved-donor complex (CDC); The crystal structure PDB 4FCY holds a shorter construct without domain IIIβ; also called MuA protein; WT
stoichiometry N: 4
